Starred links: 1 amine or outer side, 2 acyl side, 3 side chain; linkers in the order of their positions; H or OH if unused. Non-standard residues stand in square brackets, D forms with d. Groups on a side chain read outwards from the residue. No end group written: not given here. *: point of attachment. C18 diacid = O=C(O)CCCCCCCCCCCCCCCCC(=O)*; γGlu = O=C(O)[C@H](CCC(=O)[*:2])N[*:1]; AEEA = NCCOCCOCC(=O)O; Aib = CC(C)(N)C(=O)O
Biological target: T1, CRF1R receptor (anti-target) (UniProt P34998 24-415, limits assumed)
T1 sequence (looked up): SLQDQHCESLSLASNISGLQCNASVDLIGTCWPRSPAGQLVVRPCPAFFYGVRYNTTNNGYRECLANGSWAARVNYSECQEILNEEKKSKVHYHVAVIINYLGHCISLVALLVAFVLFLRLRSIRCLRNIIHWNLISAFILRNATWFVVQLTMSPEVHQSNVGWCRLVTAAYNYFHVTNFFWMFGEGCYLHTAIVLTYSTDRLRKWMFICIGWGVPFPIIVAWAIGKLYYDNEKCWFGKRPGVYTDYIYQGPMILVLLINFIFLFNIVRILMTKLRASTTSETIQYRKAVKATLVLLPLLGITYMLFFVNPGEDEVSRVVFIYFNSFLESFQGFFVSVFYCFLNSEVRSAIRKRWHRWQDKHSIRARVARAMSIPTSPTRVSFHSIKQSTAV
Assay: cell-based or functional assay

Row | Binder | EC50 [nM] 0% HSA (cAMP, HTRF) [nM] | Emax (%) (100% = Sauvagine at 100 nM)
1 | IVLSLDVPIKLK([AEEA-AEEA-γGlu-C18 diacid])QILLKQERQKKQRQQAEKNKQILAQV-NH2 (N-terminus assumed; SMILES CC[C@H](C)[C@H](N)C(=O)N[C@H](C(=O)N[C@@H](CC(C)C)C(=O)N[C@@H](CO)C(=O)N[C@@H](CC(C)C)C(=O)N[C@@H](CC(=O)O)C(=O)N[C@H](C(=O)N1CCC[C@H]1C(=O)N[C@H](C(=O)N[C@@H](CCCCN)C(=O)N[C@@H](CC(C)C)C(=O)N[C@@H](CCCCNC(=O)COCCOCCNC(=O)COCCOCCNC(=O)CC[C@H](NC(=O)CCCCCCCCCCCCCCCCC(=O)O)C(=O)O)C(=O)N[C@@H](CCC(N)=O)C(=O)N[C@H](C(=O)N[C@@H](CC(C)C)C(=O)N[C@@H](CC(C)C)C(=O)N[C@@H](CCCCN)C(=O)N[C@@H](CCC(N)=O)C(=O)N[C@@H](CCC(=O)O)C(=O)N[C@@H](CCCNC(=N)N)C(=O)N[C@@H](CCC(N)=O)C(=O)N[C@@H](CCCCN)C(=O)N[C@@H](CCCCN)C(=O)N[C@@H](CCC(N)=O)C(=O)N[C@@H](CCCNC(=N)N)C(=O)N[C@@H](CCC(N)=O)C(=O)N[C@@H](CCC(N)=O)C(=O)N[C@@H](C)C(=O)N[C@@H](CCC(=O)O)C(=O)N[C@@H](CCCCN)C(=O)N[C@@H](CC(N)=O)C(=O)N[C@@H](CCCCN)C(=O)N[C@@H](CCC(N)=O)C(=O)N[C@H](C(=O)N[C@@H](CC(C)C)C(=O)N[C@@H](C)C(=O)N[C@@H](CCC(N)=O)C(=O)N[C@H](C(N)=O)C(C)C)[C@@H](C)CC)[C@@H](C)CC)[C@@H](C)CC)C(C)C)C(C)C) [peptide of SEQ ID NO: 122] | > 100 | 6.9
2 | IVLSLDVPIKLK([AEEA-AEEA-γGlu-C18 diacid])QILLKQARQK[Aib]QRAQAEKNKRILERV-NH2 (N-terminus assumed; SMILES CC[C@H](C)[C@H](N)C(=O)N[C@H](C(=O)N[C@@H](CC(C)C)C(=O)N[C@@H](CO)C(=O)N[C@@H](CC(C)C)C(=O)N[C@@H](CC(=O)O)C(=O)N[C@H](C(=O)N1CCC[C@H]1C(=O)N[C@H](C(=O)N[C@@H](CCCCN)C(=O)N[C@@H](CC(C)C)C(=O)N[C@@H](CCCCNC(=O)COCCOCCNC(=O)COCCOCCNC(=O)CC[C@H](NC(=O)CCCCCCCCCCCCCCCCC(=O)O)C(=O)O)C(=O)N[C@@H](CCC(N)=O)C(=O)N[C@H](C(=O)N[C@@H](CC(C)C)C(=O)N[C@@H](CC(C)C)C(=O)N[C@@H](CCCCN)C(=O)N[C@@H](CCC(N)=O)C(=O)N[C@@H](C)C(=O)N[C@@H](CCCNC(=N)N)C(=O)N[C@@H](CCC(N)=O)C(=O)N[C@@H](CCCCN)C(=O)NC(C)(C)C(=O)N[C@@H](CCC(N)=O)C(=O)N[C@@H](CCCNC(=N)N)C(=O)N[C@@H](C)C(=O)N[C@@H](CCC(N)=O)C(=O)N[C@@H](C)C(=O)N[C@@H](CCC(=O)O)C(=O)N[C@@H](CCCCN)C(=O)N[C@@H](CC(N)=O)C(=O)N[C@@H](CCCCN)C(=O)N[C@@H](CCCNC(=N)N)C(=O)N[C@H](C(=O)N[C@@H](CC(C)C)C(=O)N[C@@H](CCC(=O)O)C(=O)N[C@@H](CCCNC(=N)N)C(=O)N[C@H](C(N)=O)C(C)C)[C@@H](C)CC)[C@@H](C)CC)[C@@H](C)CC)C(C)C)C(C)C) [peptide of SEQ ID NO: 124] | > 100 | -2.5
3 | IVLSLDVPIKLK([AEEA-AEEA-γGlu-C18 diacid])QILLEQARQK[Aib]QREQAEKNKRILERV-NH2 (N-terminus assumed; SMILES CC[C@H](C)[C@H](N)C(=O)N[C@H](C(=O)N[C@@H](CC(C)C)C(=O)N[C@@H](CO)C(=O)N[C@@H](CC(C)C)C(=O)N[C@@H](CC(=O)O)C(=O)N[C@H](C(=O)N1CCC[C@H]1C(=O)N[C@H](C(=O)N[C@@H](CCCCN)C(=O)N[C@@H](CC(C)C)C(=O)N[C@@H](CCCCNC(=O)COCCOCCNC(=O)COCCOCCNC(=O)CC[C@H](NC(=O)CCCCCCCCCCCCCCCCC(=O)O)C(=O)O)C(=O)N[C@@H](CCC(N)=O)C(=O)N[C@H](C(=O)N[C@@H](CC(C)C)C(=O)N[C@@H](CC(C)C)C(=O)N[C@@H](CCC(=O)O)C(=O)N[C@@H](CCC(N)=O)C(=O)N[C@@H](C)C(=O)N[C@@H](CCCNC(=N)N)C(=O)N[C@@H](CCC(N)=O)C(=O)N[C@@H](CCCCN)C(=O)NC(C)(C)C(=O)N[C@@H](CCC(N)=O)C(=O)N[C@@H](CCCNC(=N)N)C(=O)N[C@@H](CCC(=O)O)C(=O)N[C@@H](CCC(N)=O)C(=O)N[C@@H](C)C(=O)N[C@@H](CCC(=O)O)C(=O)N[C@@H](CCCCN)C(=O)N[C@@H](CC(N)=O)C(=O)N[C@@H](CCCCN)C(=O)N[C@@H](CCCNC(=N)N)C(=O)N[C@H](C(=O)N[C@@H](CC(C)C)C(=O)N[C@@H](CCC(=O)O)C(=O)N[C@@H](CCCNC(=N)N)C(=O)N[C@H](C(N)=O)C(C)C)[C@@H](C)CC)[C@@H](C)CC)[C@@H](C)CC)C(C)C)C(C)C) [peptide of SEQ ID NO: 125] | > 100 | 17.7
4 | IVLSLDVPIKLK([AEEA-AEEA-γGlu-C18 diacid])QILLEQARQK[Aib]QRAQAEKNKRILERV-NH2 (N-terminus assumed; SMILES CC[C@H](C)[C@H](N)C(=O)N[C@H](C(=O)N[C@@H](CC(C)C)C(=O)N[C@@H](CO)C(=O)N[C@@H](CC(C)C)C(=O)N[C@@H](CC(=O)O)C(=O)N[C@H](C(=O)N1CCC[C@H]1C(=O)N[C@H](C(=O)N[C@@H](CCCCN)C(=O)N[C@@H](CC(C)C)C(=O)N[C@@H](CCCCNC(=O)COCCOCCNC(=O)COCCOCCNC(=O)CC[C@H](NC(=O)CCCCCCCCCCCCCCCCC(=O)O)C(=O)O)C(=O)N[C@@H](CCC(N)=O)C(=O)N[C@H](C(=O)N[C@@H](CC(C)C)C(=O)N[C@@H](CC(C)C)C(=O)N[C@@H](CCC(=O)O)C(=O)N[C@@H](CCC(N)=O)C(=O)N[C@@H](C)C(=O)N[C@@H](CCCNC(=N)N)C(=O)N[C@@H](CCC(N)=O)C(=O)N[C@@H](CCCCN)C(=O)NC(C)(C)C(=O)N[C@@H](CCC(N)=O)C(=O)N[C@@H](CCCNC(=N)N)C(=O)N[C@@H](C)C(=O)N[C@@H](CCC(N)=O)C(=O)N[C@@H](C)C(=O)N[C@@H](CCC(=O)O)C(=O)N[C@@H](CCCCN)C(=O)N[C@@H](CC(N)=O)C(=O)N[C@@H](CCCCN)C(=O)N[C@@H](CCCNC(=N)N)C(=O)N[C@H](C(=O)N[C@@H](CC(C)C)C(=O)N[C@@H](CCC(=O)O)C(=O)N[C@@H](CCCNC(=N)N)C(=O)N[C@H](C(N)=O)C(C)C)[C@@H](C)CC)[C@@H](C)CC)[C@@H](C)CC)C(C)C)C(C)C) [peptide of SEQ ID NO: 123] | > 100 | 9
5 | IVLSLD[dV]PIKLK([AEEA-AEEA-γGlu-C18 diacid])QILLEQAKQK[Aib]QRAQAEKNKRILERV-NH2 (N-terminus assumed; SMILES CC[C@H](C)[C@H](N)C(=O)N[C@H](C(=O)N[C@@H](CC(C)C)C(=O)N[C@@H](CO)C(=O)N[C@@H](CC(C)C)C(=O)N[C@@H](CC(=O)O)C(=O)N[C@@H](C(=O)N1CCC[C@H]1C(=O)N[C@H](C(=O)N[C@@H](CCCCN)C(=O)N[C@@H](CC(C)C)C(=O)N[C@@H](CCCCNC(=O)COCCOCCNC(=O)COCCOCCNC(=O)CC[C@H](NC(=O)CCCCCCCCCCCCCCCCC(=O)O)C(=O)O)C(=O)N[C@@H](CCC(N)=O)C(=O)N[C@H](C(=O)N[C@@H](CC(C)C)C(=O)N[C@@H](CC(C)C)C(=O)N[C@@H](CCC(=O)O)C(=O)N[C@@H](CCC(N)=O)C(=O)N[C@@H](C)C(=O)N[C@@H](CCCCN)C(=O)N[C@@H](CCC(N)=O)C(=O)N[C@@H](CCCCN)C(=O)NC(C)(C)C(=O)N[C@@H](CCC(N)=O)C(=O)N[C@@H](CCCNC(=N)N)C(=O)N[C@@H](C)C(=O)N[C@@H](CCC(N)=O)C(=O)N[C@@H](C)C(=O)N[C@@H](CCC(=O)O)C(=O)N[C@@H](CCCCN)C(=O)N[C@@H](CC(N)=O)C(=O)N[C@@H](CCCCN)C(=O)N[C@@H](CCCNC(=N)N)C(=O)N[C@H](C(=O)N[C@@H](CC(C)C)C(=O)N[C@@H](CCC(=O)O)C(=O)N[C@@H](CCCNC(=N)N)C(=O)N[C@H](C(N)=O)C(C)C)[C@@H](C)CC)[C@@H](C)CC)[C@@H](C)CC)C(C)C)C(C)C) [peptide of SEQ ID NO: 126] | > 100 | 36.5
6 | IVLSLDVPIKLK([AEEA-AEEA-γGlu-C18 diacid])QILLKQERQKKQREKAEKNKQILAQV-NH2 (N-terminus assumed; SMILES CC[C@H](C)[C@H](N)C(=O)N[C@H](C(=O)N[C@@H](CC(C)C)C(=O)N[C@@H](CO)C(=O)N[C@@H](CC(C)C)C(=O)N[C@@H](CC(=O)O)C(=O)N[C@H](C(=O)N1CCC[C@H]1C(=O)N[C@H](C(=O)N[C@@H](CCCCN)C(=O)N[C@@H](CC(C)C)C(=O)N[C@@H](CCCCNC(=O)COCCOCCNC(=O)COCCOCCNC(=O)CC[C@H](NC(=O)CCCCCCCCCCCCCCCCC(=O)O)C(=O)O)C(=O)N[C@@H](CCC(N)=O)C(=O)N[C@H](C(=O)N[C@@H](CC(C)C)C(=O)N[C@@H](CC(C)C)C(=O)N[C@@H](CCCCN)C(=O)N[C@@H](CCC(N)=O)C(=O)N[C@@H](CCC(=O)O)C(=O)N[C@@H](CCCNC(=N)N)C(=O)N[C@@H](CCC(N)=O)C(=O)N[C@@H](CCCCN)C(=O)N[C@@H](CCCCN)C(=O)N[C@@H](CCC(N)=O)C(=O)N[C@@H](CCCNC(=N)N)C(=O)N[C@@H](CCC(=O)O)C(=O)N[C@@H](CCCCN)C(=O)N[C@@H](C)C(=O)N[C@@H](CCC(=O)O)C(=O)N[C@@H](CCCCN)C(=O)N[C@@H](CC(N)=O)C(=O)N[C@@H](CCCCN)C(=O)N[C@@H](CCC(N)=O)C(=O)N[C@H](C(=O)N[C@@H](CC(C)C)C(=O)N[C@@H](C)C(=O)N[C@@H](CCC(N)=O)C(=O)N[C@H](C(N)=O)C(C)C)[C@@H](C)CC)[C@@H](C)CC)[C@@H](C)CC)C(C)C)C(C)C) [peptide of SEQ ID NO: 121] | > 100 | -1.1

Source: patent US12679878B2, “CRF2 receptor agonists and their use in therapy” (SANOFI, priority 2020, dated 2026)
